According to patent US20100112601A1:

Molecular target: PAC1 receptor expressed in Chinese hamster ovary (CHO) cells (UniProt P41586)
Assay: cell-based or functional assay

Chain of UniProt P41586 (P41586 21-468 limits assumed): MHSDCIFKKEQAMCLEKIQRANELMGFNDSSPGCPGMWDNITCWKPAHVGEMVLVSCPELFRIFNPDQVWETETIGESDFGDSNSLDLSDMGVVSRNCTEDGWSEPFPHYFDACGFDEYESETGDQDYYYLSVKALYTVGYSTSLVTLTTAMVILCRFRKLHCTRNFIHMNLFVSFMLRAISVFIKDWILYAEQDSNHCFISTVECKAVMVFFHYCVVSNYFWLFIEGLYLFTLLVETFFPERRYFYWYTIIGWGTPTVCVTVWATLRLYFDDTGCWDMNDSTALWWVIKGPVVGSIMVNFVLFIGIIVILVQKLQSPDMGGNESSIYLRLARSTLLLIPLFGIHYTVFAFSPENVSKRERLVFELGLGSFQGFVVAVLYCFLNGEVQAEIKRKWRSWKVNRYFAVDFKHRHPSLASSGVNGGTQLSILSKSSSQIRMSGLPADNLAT

For “PACAP(6-38)NH2 (from UniProt P18509 87-119) (peptide)”, the inhibition of PACAP27-stimulated GTPγ-35S binding to membranes of PAC1-expressing CHO cells, IC50 was 100 nM.
